Test results taken from PMC7837213, “Systematic Activity Maturation of a Single-Domain Antibody with Non-canonical Amino Acids through Chemical Mutagenesis” (Cell Chemical Biology, 2021).

Biological target: T1, Beta - Amyloid (1 - 42) - Lys(Biotin) - NH2, Human (human, UniProt P05067 672-713, Lys(Biotin) added at the C-terminus; C-terminal amide (NH2))
T1 construct: amyloid-beta peptide (1-42), human, cut product of the amyloid precursor protein; numbers count on: the Aβ peptide; added C-terminal lysine that carries the biotin, amidated; Held on streptavidin biosensors by the C-terminal biotin; also called monomeric C-terminally biotinylated Aβ42; C-terminally immobilized monomeric Aβ42; source: bought: Anaspec
Assay: BLI; C-terminally biotinylated monomeric Aβ42 (5 μg/ml) on streptavidin biosensors; antibodies at 20 μM in PBS + 0.1% BSA + 0.02% TWEEN 20, 30°C; association 900 s, dissociation 1200 s; signal of biocytin-coated sensors subtracted
Conditions: both partners purified

T1 sequence (P05067 other isoform, or with tags, fused parts or gaps): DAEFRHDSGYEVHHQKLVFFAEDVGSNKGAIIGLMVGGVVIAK

binding result	Binder
binds	DesAb-Aβ(3–9) (antibody, V domains shown, single-domain antibody on a human VH scaffold with the in-silico-designed CDR3 loop HETLTLR and a thermally stabilizing mutation; No cleavage of the tag is told; also called the starting construct; starting single-domain antibody; source: E. coli BL21 (DE3)-Gold, pRSET-B vector, purified (Ni-NTA, SEC); not shown: His6, N-terminal, kept) VH: EVQLVESGGGLVQPGGSLRLSCAASGFNIKDTYIGWVRRAPGKGKEWVASIYPTNGYTRYADSVKGRFTISADTSKNTAYLQMNSLRAEDTAVYYCAAGSHETLTLREEEAAAWGQGTLVTVSS
binds	DesAb-Aβ(3–9) (T138captamine) (antibody, V domains shown, position 138: non-canonical side chain, captamine (2-(dimethylamino)ethanethiol) added to dehydroalanine (Dha) by thiol-Michael addition; epimeric mixture of D and L side chains, T138 is replaced through T138C and Dha by the captamine adduct; The new residue at 138 is written as C because the thiol adduct of Dha is an S-alkylated cysteine (S-(2-dimethylaminoethyl)cysteine); also called the captamine mutant; not shown: His6, N-terminal, kept) VH: EVQLVESGGGLVQPGGSLRLSCAASGFNIKDTYIGWVRRAPGKGKEWVASIYPTNGYTRYADSVKGRFTISADTSKNTAYLQMNSLRAEDTAVYYCAAGSHECLTLREEEAAAWGQGTLVTVSS
